# Results as given in the DeepSol protein solubility set.
# Assay: soluble on expression in E. coli; label from the status in PepcDB or PDB records
row,Sequence,soluble on expression in E. coli
1,MDNRIPSALTTSVKSPKTPSGIPFLIRERDVIKAILEFLEIRGLHITQLSLEREAGVINGAFSDDLLFLRQLILDGQWDNALDFVEPLKPVNEFDFGAFRYNITKYKFFELLCVKLEPGPLHDNDFAVEELVECLKDLEHICPTPEDYRHLCALLTLPKLSDHEDFKNWNPSSARVECFNKVNQLCGHLLPPTGKEKDRGDDANSSNDRLTGLITKGRFYEGCVDYCQAQAIGDKRGIDAGPMPSEMLTFRPKLGSADLSLVCWLEMVGKEQFSMPFKQKQLELKVDHIRKPKLEAPWTETIMATPIKPGGQFPHNLVPSSKLKFAEKMSQSMTMSMLPPADLTTSMFPSVPRGHPMSQSTAAGFCLGTAITEADAMAQSLLIDEMMESSQLARTSRPDTLRGVGMMMTGDTIVPVQPAQVMINAPSQLSSQMMSMSMAPQVMAPIAPMAQNMINYDFAPVRRQLDEMARRSLPPSRLPTVPELGSPAVNSHHEENLMTQSRLFQQFSAAKQINEMVLPRGVGGVVGAAGAVGGAHVLPLQSQERLFQQRVAAAPGFQNGAQIPNQSMVPQGVPMSHQIRPQSIAGLPQAQPQVPQQLQRPVSAPTGMGVQFVPVCRYEDSQAIRATGFHPSGRYFALGTNSKQLHICLYPDTKRTQSRPMAYEQTKNAEIAVTRPKQHRGSVYCLSFNPNGDLLATGSNDKTIRLMAFNEDSCRIGAEMELTCHDGTVRDLIFIESSINRSTILVSGGAGNCHLNVTDCNTGQLIQSMKGHTAPILGLYTWSQAGNQFVSCSQDKTIRFWDLRQQTAVNVISPGSNKSHNASPVTSVCVDPNGKLLVSGHEDASVALFDIGGNRILQTFRPHGDEVRTVRFSNAAYYLLTASYDKRVVISDMRGDLMAPLMYLPVAEHSDKVVQCRWHPHDFSFLSTSADRSAVLWSLPNR,not soluble
2,MSSDIDELRREIDIVDVISEYLNLEKVGSNYRTNCPFHPDDTPSFYVSPSKQIFKCFGCGVGGDAIKFVSLYEDISYFEAALELAKRYGKKLDLEKISKDEKVYVALDRVCDFYRESLLKNREASEYVKSRGIDPKVARKFDLGYAPSSEALVKVLKENDLLEAYLETKNLLSPTKGVYRDLFLRRVVIPIKDPRGRVIGFGGRRIVEDKSPKYINSPDSRVFKKGENLFGLYEAKEYIKEEGFAILVEGYFDLLRLFSEGIRNVVAPLGTALTQNQANLLSKFTKKVYILYDGDDAGRKAMKSAIPLLLSAGVEVYPVYLPEGYDPDEFIKEFGKEELRRLINSSGELFETLIKTARENLEEKTREFRYYLGFISDGVRRFALASEFHTKYKVPMEILLMKIEKNSQEKEIKLSFKEKIFLKGLIELKPKIDLEVLNLSPELKELAVNALNGEEHLLPKEVLEYQVDNLEKLFNNILRDLQKSGKKRKKRGLKNVNT,soluble
3,MGSDKIHHHHHHMLHRRKTYTIRPERLQEFTEFFHTYLYPLQISHGARLVGRWVNEAEDEVIAIWEYRDREHYEQVDRDVRGSTLRREAMKKRARLGKNLYIKSTEDFLTATGVYAPPRAIVSVTAYITNEAGEVLLVRNLHRGDTYEMPGGQVENHESILDAVKREVKEETGADVTIEGITGIYQNVSSHVLCVAFRGTYTGGELRPQEGETAEVGFFDLNRENIDTYIKREHFQLRTLDAMDPHYFPHALYKVRPYELISRYDGNAPSALSGQN,not soluble
4,GMVEKPQLKFKSPIDNSESHPFIPLLKEKPNALKPLSESLRLVDDDENNPSHYPHPYEYEIDHQEYSPEILQIREEIPSKSWDDSVPIWVDTSTELESMLEDLKNTKEIAVDLEHHDYRSYYGIVCLMQISTRERDYLVDTLKLRENLHILNEVFTNPSIVKVFHGAFMDIIWLQRDLGLYVVGLFDTYHASKAIGLPRHSLAYLLENFANFKTSKKYQLADWRIRPLSKPMTAAARADTHFLLNIYDQLRNKLIESNKLAGVLYESRNVAKRRFEYSKYRPLTPSSEVYSPIEKESPWKILMYQYNIPPEREVLVRELYQWRDLIARRDDESPRFVMPNQLLAALVAYTPTDVIGVVSLTNGVTEHVRQNAKLLANLIRDALRNIKNTNEEATPIPSSETKADGILLET,soluble
5,MRPDFGTDGRLPSALSMGTADVAFHLATGGNPVPLAFTFGFEGRAPTLDSVRARVAERVHHVPALRYRIARDRRKFRRVDRIAVDRHVHEAWLPEDTDGSATSRLMLSRPMSTDDRPPWDVWLVHGPAERHTLVYRTDHTFQDGMGAAYTARALLGDHPEGGPAPQRPARPTAHGLADALGEVVAAFRAPTPKPAFDGDFTGRVDVCHADTPLARLRAIARAHGGTVTDVYLAALSHAVRTWYLKDTGSAHPPLPVSIPMSVRAPGEEYAPGNRMVTARLLLPCDEESPQRALARVVAGTGRLRESRRRDAMRLLLSASPRALGATVGTRLVRGAFVAGPVSSVNFGTALVHQGVAARRSAVFAGVASGIRCVTTLTSQHDTACLTVVHDEALATADELPDLWLAALLELERPLEHHHHHH,not soluble
